How the values were obtained:
[1] = type: in vitro ADME, mice
Method: Figure 5 NEP-dependent neuropeptide degradation. […] The reactions were stopped by adding 0.35 M perchloric acid. In parallel assays, heat-inactivated probes (5 min at 90°C) were used as a control. After centrifugation of sedimented proteins, HPLC analyses were performed by isocratic elution as described by Siems et al.. […] The reactions were stopped by addition of 0.35 M perchloric acid. In parallel assays, heat-inactivated NEP (5 min at 90°C) was used as a control. HPLC analysis was performed by isocratic elution as described. The significance of differences was calculated by two-sided t test; n≥4; **P<0.01. (c) For galanin and GLP-1 immunohistochemistry, slices were incubated with the specific antibodies, followed by incubation with biotinylated anti-rabbit IgG. Immunoreactive products were visualized by the nickel ammonium sulfate-intensified diaminobenzidine reaction. Unequivocally stained regions in the murine cortex were localized and defined as ROIs (regions of interest), and luminometrically compared with adjacent regions without detectable staining (reference ROIs) (for both regions n = 40). The calculated differences were shown as mean±s.e.m.). Significant differences were calculated by Student's t test, indicated by **P<0.01, ***P<0.001.
The production of brain membranes and the HPLC-monitored peptide degradation procedures were performed as described in detail by Siems et al.. […]

recombinant (rc) NEP = target: T1, recombinant (rc) NEP (Homo sapiens, UniProt P08473); test: HPLC-monitored peptide degradation by recombinant NEP; type: in vitro ADME; settings: peptide 5 µM, rcNEP 20 ng (R&D Systems), over 120 min, stopped with 0.35 M perchloric acid, heat-inactivated control, HPLC isocratic elution, n≥3; values only in Figure 5a
T1 construct: purchased R&D Systems GmbH (Wiesbaden, Germany)
Method: The reactions were stopped by adding 0.35 M perchloric acid. In parallel assays, heat-inactivated probes (5 min at 90°C) were used as a control. After centrifugation of sedimented proteins, HPLC analyses were performed by isocratic elution as described by Siems et al. [45]. […] The reactions were stopped by addition of 0.35 M perchloric acid. In parallel assays, heat-inactivated NEP (5 min at 90°C) was used as a control. HPLC analysis was performed by isocratic elution as described [45].
The production of brain membranes and the HPLC-monitored peptide degradation procedures were performed as described in detail by Siems et al. [45]. […] The recombinant NEP was obtained from R&D Systems GmbH (Wiesbaden, Germany).

NEP [2] = settings: rats and mice after treatment with thiorphan; cited from earlier work
Source text: Consistent with previous studies showing a broad spectrum of peptidases inhibited by that peptidase inhibitor [18], we hypothesized that there were other factors inhibited by thiorphan as a requisite for murine Aβ accumulation.

NEP [3] = settings: infusion into hippocampus or cortical ventricle, young rats, 4 weeks, local Aβ accumulation; cited from earlier work
Source text: The underlying mechanisms leading to better learning and improved LTP are still speculative. However, this improved learning seems more likely to be an Aβ-independent effect in our mouse model.

[4] = tested on: associative and spatial learning; settings: injected intracerebroventricularly; cited from earlier work
Source text: It has been shown that NEP targets a variety of peptides involved in learning and memory such as oxytocin [36], NPY [37] or CCK [38]. Thus, marked improvement in learning and memory in very old NEP-deficient mice if compared with their aged-matched controls appears to be explained best by these NEP-degradable neuropeptides. Nevertheless, the known catalytic properties of NEP - it preferentially hydrolyses oligopeptides by cleaving on the N-terminal side of hydrophobic amino acid residues - and the knowledge of further potential learning-associated peptides [39]–[42] motivated us to t ...

T1 sequence (P08473 whole entry): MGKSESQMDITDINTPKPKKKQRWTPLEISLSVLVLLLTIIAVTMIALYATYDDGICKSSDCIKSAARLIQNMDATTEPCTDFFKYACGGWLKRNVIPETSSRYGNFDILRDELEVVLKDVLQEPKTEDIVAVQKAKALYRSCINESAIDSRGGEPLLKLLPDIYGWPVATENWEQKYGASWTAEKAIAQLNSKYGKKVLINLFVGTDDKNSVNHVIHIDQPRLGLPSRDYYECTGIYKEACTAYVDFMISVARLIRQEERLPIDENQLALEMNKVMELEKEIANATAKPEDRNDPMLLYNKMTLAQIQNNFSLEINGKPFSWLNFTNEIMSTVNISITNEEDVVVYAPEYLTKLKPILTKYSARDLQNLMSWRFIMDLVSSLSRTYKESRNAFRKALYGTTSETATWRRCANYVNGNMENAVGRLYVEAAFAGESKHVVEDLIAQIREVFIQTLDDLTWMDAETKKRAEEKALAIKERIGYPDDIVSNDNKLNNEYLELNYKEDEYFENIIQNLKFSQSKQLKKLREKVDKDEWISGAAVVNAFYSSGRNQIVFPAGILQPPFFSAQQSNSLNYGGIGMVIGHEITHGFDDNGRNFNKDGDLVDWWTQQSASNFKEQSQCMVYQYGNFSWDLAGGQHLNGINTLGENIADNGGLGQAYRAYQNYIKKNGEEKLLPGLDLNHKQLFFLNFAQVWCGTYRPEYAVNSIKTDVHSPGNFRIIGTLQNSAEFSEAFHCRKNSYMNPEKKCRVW

| Compound | peptide degradation in brain membranes of wild-type (+/+) and knockout mice (−/−) [1] | degradation by rcNEP (recovery in %) (recombinant (rc) NEP) | deposition of endogenous Aβ (NEP [2]) | effect on learning and memory (NEP [3]) | effect on associative and spatial learning [4] |
| --- | --- | --- | --- | --- | --- |
| galanin | identified galanin as a NEP substrate | identified galanin as a NEP substrate | – | – | – |
| O=C(O)CNC(=O)C(CS)Cc1ccccc1 (stereo not drawn) [thiorphan] | – | – | plaque formation and fibrillization | impaired learning and memory | – |
| glucagon-like peptide 1 [GLP-1] | reduced rate of GLP-1 degradation in brains lacking NEP | – | – | – | improve associative and spatial learning |
